The values that follow come from the supplement of paper PMC9112550, “Optimization of the antimicrobial peptide Bac7 by deep mutational scanning” (BMC Biology, 2022).
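Further: peptides expressed intracellularly from a pBAD plasmid library in pooled LB shake-flask culture, induced with 0.3% L-arabinose, DNA abundance read by NGS, three biological replicates, DESeq2 with apeglm shrinkage.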

The test system of this data set is Escherichia coli TOP10. As to the kind of experiment: shrunken log2 fold change of peptide-encoding DNA abundance (4.5 h post-induction vs induction); higher = less antimicrobial activity (less host growth inhibition). The conditions noted are these: time post-induction: 4.5 h; library: site-saturation at positions 5, 18, 19, 20.
On to RRIRPRPPRLPRPRPRPNGLPRP, for which the “shrunken log2 fold change” value is 0.015.
To RRIRKRPPRLPRPRPRPDKFPRP belongs 0.126.
As for RRIRWRPPRLPRPRPRPLELPRP, the figure is 0.106.
For RRIRGRPPRLPRPRPRPLIFPRP, the “shrunken log2 fold change” value is 0.404.
To RRIRRRPPRLPRPRPRPGLLPRP belongs 0.0882; to RRIRPRPPRLPRPRPRPRCNPRP, -0.0415.
To RRIRWRPPRLPRPRPRPHQPPRP belongs 0.145.
As for RRIRFRPPRLPRPRPRPCVYPRP, the figure is -0.0699.
Consider RRIRSRPPRLPRPRPRPFHKPRP, for which the “shrunken log2 fold change” value was -0.0363.
To RRIRRRPPRLPRPRPRPDYQPRP belongs 0.0952.
As for RRIRLRPPRLPRPRPRPRGNPRP, the figure is 0.0735.
To RRIRHRPPRLPRPRPRPAHDPRP belongs 0.0776.
RRIRQRPPRLPRPRPRPNEWPRP: the “shrunken log2 fold change” value is -0.00822.
To RRIRIRPPRLPRPRPRPMMVPRP belongs -0.00145.
To RRIRNRPPRLPRPRPRPAKGPRP belongs -0.051; to RRIRMRPPRLPRPRPRPDLSPRP, 1.58; to RRIRRRPPRLPRPRPRPYLDPRP, -0.546.
As for RRIRRRPPRLPRPRPRPCFFPRP, the figure is 0.0648; as for RRIRYRPPRLPRPRPRPTKWPRP, -0.489.
For RRIRMRPPRLPRPRPRPVGIPRP, the “shrunken log2 fold change” value amounted to 0.158.
To RRIRFRPPRLPRPRPRPMHCPRP belongs -0.253.
Regarding RRIRWRPPRLPRPRPRPINEPRP, the “shrunken log2 fold change” value was found to be 0.402.
To RRIRHRPPRLPRPRPRPAITPRP belongs -0.0845.
As for RRIRDRPPRLPRPRPRPRDIPRP, the figure is 0.0838; as for RRIRLRPPRLPRPRPRPPMAPRP, 0.0265.
To RRIRNRPPRLPRPRPRPKFHPRP belongs -0.078; to RRIRRRPPRLPRPRPRPKLGPRP, 0.141.
For the sequence RRIRFRPPRLPRPRPRPTTKPRP, the “shrunken log2 fold change” value is -0.167.
To RRIRTRPPRLPRPRPRPHDKPRP belongs -0.51.
As to RRIRSRPPRLPRPRPRPYAVPRP, the “shrunken log2 fold change” value was -0.137.
To RRIRQRPPRLPRPRPRPPNYPRP belongs 0.195; to RRIRMRPPRLPRPRPRPYNTPRP, -0.862.
To RRIRVRPPRLPRPRPRPDTSPRP belongs -0.124.
To RRIRARPPRLPRPRPRPDNPPRP belongs 0.0396; to RRIRGRPPRLPRPRPRPATPPRP, 1.83; to RRIRARPPRLPRPRPRPTVYPRP, -0.00696.
Consider RRIRDRPPRLPRPRPRPNTPPRP, for which the “shrunken log2 fold change” value was -0.0665.
As for RRIRQRPPRLPRPRPRPCWWPRP, the figure is 0.0676; as for RRIRWRPPRLPRPRPRPGSTPRP, 0.161.
As for RRIRTRPPRLPRPRPRPDWAPRP, the “shrunken log2 fold change” value is 0.327.
To RRIRKRPPRLPRPRPRPGQSPRP belongs 0.306; to RRIRKRPPRLPRPRPRPPIIPRP, -0.146; to RRIRKRPPRLPRPRPRPPVRPRP, 0.265.
As for RRIRGRPPRLPRPRPRPVIDPRP, the figure is 0.292.
RRIRARPPRLPRPRPRPGAIPRP: the “shrunken log2 fold change” value was found to be 0.828.
To RRIRERPPRLPRPRPRPPHTPRP belongs -0.152.
As for RRIRYRPPRLPRPRPRPCYTPRP, the figure is -0.5; as for RRIRCRPPRLPRPRPRPILPPRP, -0.287; as for RRIRYRPPRLPRPRPRPEWFPRP, -0.0405.
To RRIRYRPPRLPRPRPRPVTMPRP belongs -0.688.
In the case of RRIRWRPPRLPRPRPRPLYEPRP, the “shrunken log2 fold change” value is -0.255.
In the case of RRIRDRPPRLPRPRPRPKTYPRP, the “shrunken log2 fold change” value is -0.227.
On to RRIRDRPPRLPRPRPRPGSQPRP, for which the “shrunken log2 fold change” value is 0.0966.
For RRIRSRPPRLPRPRPRPCNDPRP, the “shrunken log2 fold change” value was -0.261.
Regarding RRIRNRPPRLPRPRPRPHINPRP, the “shrunken log2 fold change” value was -1.02.
As for RRIRVRPPRLPRPRPRPYKYPRP, the figure is -0.835; as for RRIRPRPPRLPRPRPRPSHYPRP, -0.479; as for RRIRIRPPRLPRPRPRPDKEPRP, -0.0239.
To RRIRCRPPRLPRPRPRPMIKPRP belongs -0.497; to RRIRWRPPRLPRPRPRPANGPRP, -0.186; to RRIRMRPPRLPRPRPRPRPYPRP, 0.126.
As for RRIRHRPPRLPRPRPRPAWKPRP, the figure is -0.0109.
For the sequence RRIRSRPPRLPRPRPRPHLDPRP, the “shrunken log2 fold change” value is -0.156.
As for RRIRYRPPRLPRPRPRPHEEPRP, the “shrunken log2 fold change” value was -0.018.
Regarding RRIRDRPPRLPRPRPRPHTHPRP, the “shrunken log2 fold change” value was -0.0285.
To RRIRDRPPRLPRPRPRPGVNPRP belongs 0.148; to RRIRDRPPRLPRPRPRPWMKPRP, -0.0188; to RRIRHRPPRLPRPRPRPVWMPRP, -0.243.
To RRIRARPPRLPRPRPRPTILPRP belongs 0.344; to RRIRGRPPRLPRPRPRPPTKPRP, 0.968; to RRIRCRPPRLPRPRPRPSEPPRP, -0.184.
As for RRIRPRPPRLPRPRPRPSQIPRP, the figure is -0.112.
Consider RRIRSRPPRLPRPRPRPDNNPRP, for which the “shrunken log2 fold change” value is -0.268.
To RRIRGRPPRLPRPRPRPKYSPRP belongs -0.156; to RRIRMRPPRLPRPRPRPHDYPRP, 1.54.
To RRIRFRPPRLPRPRPRPPDRPRP belongs 0.128; to RRIRNRPPRLPRPRPRPGTNPRP, -0.0826; to RRIRLRPPRLPRPRPRPCKVPRP, 0.00893.
To RRIRFRPPRLPRPRPRPKWWPRP belongs -0.0582.
As for RRIRWRPPRLPRPRPRPNMGPRP, the “shrunken log2 fold change” value was -0.0382.
As for RRIRLRPPRLPRPRPRPSVFPRP, the figure is -0.364; as for RRIRQRPPRLPRPRPRPMHEPRP, 0.187; as for RRIRGRPPRLPRPRPRPSQKPRP, 0.0248.
To RRIRIRPPRLPRPRPRPVCYPRP belongs -0.633.
As for RRIRLRPPRLPRPRPRPDPPPRP, the figure is 0.337; as for RRIRYRPPRLPRPRPRPTKQPRP, 0.0156.
For the sequence RRIRNRPPRLPRPRPRPWRVPRP, the “shrunken log2 fold change” value worked out at 0.515.
Take RRIRIRPPRLPRPRPRPFVKPRP: the “shrunken log2 fold change” value is -0.691.
To RRIRSRPPRLPRPRPRPHMTPRP belongs -0.384.
RRIRLRPPRLPRPRPRPQCDPRP: the “shrunken log2 fold change” value is -0.118.
As to RRIRIRPPRLPRPRPRPDLFPRP, the “shrunken log2 fold change” value was -0.103.
To RRIRPRPPRLPRPRPRPHPQPRP belongs 0.238; to RRIRDRPPRLPRPRPRPSPIPRP, 0.0798; to RRIRDRPPRLPRPRPRPKSSPRP, 0.0319.
To RRIRARPPRLPRPRPRPRNYPRP belongs 0.0668.
As for RRIRKRPPRLPRPRPRPCMWPRP, the figure is -0.189; as for RRIRERPPRLPRPRPRPFNHPRP, -1.01.
On to RRIRSRPPRLPRPRPRPCMAPRP, for which the “shrunken log2 fold change” value was -0.182.
As for RRIRLRPPRLPRPRPRPRHAPRP, the figure is 0.537; as for RRIRFRPPRLPRPRPRPWNGPRP, 0.228.
As for RRIRLRPPRLPRPRPRPSHVPRP, the figure is -0.0453.
In the case of RRIRLRPPRLPRPRPRPCDNPRP, the “shrunken log2 fold change” value was -0.161.
To RRIRQRPPRLPRPRPRPMGKPRP belongs -0.167; to RRIRNRPPRLPRPRPRPQQNPRP, 0.00594.
As for RRIRHRPPRLPRPRPRPYPKPRP, the figure is -0.193.
As for RRIRVRPPRLPRPRPRPQQCPRP, the figure is 0.145.
As to RRIRVRPPRLPRPRPRPKNCPRP, the “shrunken log2 fold change” value was -0.183.
As to RRIRCRPPRLPRPRPRPVEQPRP, the “shrunken log2 fold change” value was -0.0247.
To RRIRFRPPRLPRPRPRPTPCPRP belongs 0.107; to RRIRARPPRLPRPRPRPFTWPRP, -0.193.
As for RRIRVRPPRLPRPRPRPFTVPRP, the figure is -0.105; as for RRIRVRPPRLPRPRPRPRLKPRP, 3.13; as for RRIRARPPRLPRPRPRPHVCPRP, -0.297.
Consider RRIRHRPPRLPRPRPRPFKLPRP, for which the “shrunken log2 fold change” value is -0.196.
RRIRNRPPRLPRPRPRPTQCPRP: the “shrunken log2 fold change” value is -0.093.
As for RRIRRRPPRLPRPRPRPFEFPRP, the figure is 0.117.
For the sequence RRIRPRPPRLPRPRPRPELIPRP, the “shrunken log2 fold change” value came to 0.0313.
As for RRIRDRPPRLPRPRPRPSGYPRP, the figure is 0.0153.
As for RRIRLRPPRLPRPRPRPFMRPRP, the figure is 0.495; as for RRIRWRPPRLPRPRPRPEMAPRP, 1.14; as for RRIRMRPPRLPRPRPRPYNWPRP, -0.337.
As for RRIRTRPPRLPRPRPRPELCPRP, the figure is -0.101; as for RRIRRRPPRLPRPRPRPRDIPRP, 0.0666.
On to RRIRWRPPRLPRPRPRPGQMPRP, for which the “shrunken log2 fold change” value is 0.0528.
As for RRIRQRPPRLPRPRPRPKYWPRP, the figure is -0.309.
